Test results reported in patent publication US20240358704A1, “COMBINED ADMINISTRATION” (Hoffmann-La Roche Inc., priority 2021, published 2024).

How the values were obtained:
delta7 mice [1] = assay: In vivo plantarflexor muscle function (maximum torque, force frequency response); settings: PND52
Procedure: Hind limb muscle performance was measured in vivo with a 305C muscle lever system (Aurora Scientific Inc., Aurora, CAN). Mice were anesthetized via inhalation (˜4-5% isoflurane, or to effect) and placed on a thermostatically controlled table where anesthesia was maintained via nose-cone (˜2% isoflurane, or to effect). Hair was removed from the lower leg by application of depilatory cream for 3 minutes, followed by thorough rinsing
with physiological buffer. The leg was then wiped with a 5% povidone-iodine solution followed by 70% isopropyl alcohol. The knee was isolated using a pin through the tibial head and the foot firmly fixed to a footplate on the motor shaft. Contractions were elicited in the gastrocnemius by percutaneous electrical stimulation of the sciatic nerve.
(§1) On both muscles, a force frequency response was performed. Briefly, a series of stimulations were performed at increasing frequency of stimulation (0.2 ms pulse, 500 ms train duration): 1, 10, 20, 40, 60, 80, 100, and 150 Hz, followed by a final stimulation at 1 Hz.
(§2) Muscle function data were analyzed using Aurora Scientific 615A Dynamic Muscle Analysis Software Suite in high-throughput mode. The software automatically determines a baseline, a maximum, and a minimum. The baseline is then subtracted from the maximum to give the maximal generated force. Each data file was manually inspected to ensure that cursors and fits were assigned properly and corrected when necessary. Data were then grouped and means and standard error of the mean (SEM) calculated. In the plantarflexor muscle group, results were presented as torque, expressed in the unit mN·m, since the assay measures the force produced by the gastrocnemius rotating about the ankle. Force was directly measured in the masseter, expressed in the unit gram.

delta7 mice [2] = assay: Bone microCT of the tibia (cortical and trabecular parameters); type: in vivo; settings: GYM329 3 mg/kg SC weekly
Procedure: Bone microCT scans were performed in tibias collected at PND52. There was no effect of treatment on cortical or trabecular parameters (FIG. 7 & FIG. 8).

[3] = Tolerability study in healthy adult subjects; type: in vivo, human; settings: at AUC of 385 μg×d/mL
delta7 mice [4] = assay: In vivo masseter muscle function (maximum force, force frequency response); settings: GYM329 3 mg/kg SC weekly, PND52
Description: To assess masseter function, the mouse was anesthetized via inhalation (˜4-5% isoflurane, or to effect) and placed on a thermostatically controlled table where anesthesia was maintained via nose-cone (˜2% isoflurane, or to effect). The mouse was placed supine with custom designed restraint to ensure accessibility of the jaw for testing. The lever arm of the 305C muscle lever system (Aurora Scientific Inc., Aurora, CAN) was positioned in the diastema of the mandible and a suture was run under the middle lower incisors of the mouse and attached to the lever arm. The masseter was contracted by electrical stimulation using surface electrodes.
as §1, §2

delta7 mice [5] = assay: Plantarflexor histology: muscle fiber typing and cross-sectional area; type: in vivo; settings: GYM329 3 mg/kg SC weekly
Procedure: Plantarflexor (gastrocnemius, plantaris, and soleus) samples frozen for histology were embedded in cryomatrix on a soft cork surface to enable easy sectioning. Briefly, frozen and embedded tissues were mounted in a cryotome and serially sectioned (10 μm thickness) perpendicular to the fiber axis. Multiple slices (5-10) were taken at different portions of the muscle. The slices were then fixed in ice-cold paraformaldehyde and stored at −80° C. until further use.
For cross-sectional area determination, fixed sections from the mid-belly of the muscle were stained with wheat germ agglutinin (WGA) conjugated to a fluorophore to visualize cell membranes. Sections were digitized using fluorescent microscopy, cell boundaries were traced using predictive software, and cross-sectional area was determined via unbiased automated measurements. For muscle fiber type determination, histological slices were taken from the mid-belly of the soleus and the gastrocnemius muscle. The fixed tissue sections were then blocked using SuperBlock PBS blocking buffer (Thermo Fisher) for 1 h at room temperature. The slide was then washed with PBS and covered with a primary antibody against either MyHC-I, MyHC-IIa, or MyHC-IIb (1:20 dilution; Developmental Studies Hybridoma Database) and incubated overnight at 4° C. The slide was then washed with PBS and the appropriate secondary antibody added for 1 h at room temperature. The slide was washed again in PBS, covered in mounting solution, and a coverslip used to seal the tissue section for fluorescence microscopy measures. Fluorescently-labeled tissue sections were digitized using a fluorescence microscope (Nikon). Images were then analyzed for number of cells using standard counting software.

delta7 mice [6] = assay: Body weight and muscle weights at PND52 in pharmacological mouse model of SMA; type: in vivo
Description: The mouse model of SMA (pharmacological model) that has been used in the preclinical trial herein is the delta7 mice treated with a sub-maximal dose of the SMN-upregulating compound SMN-C1 as described in Naryshkin et al, Science 345, 688-693, 2014. […] The advantage of this model is that it has a more severe phenotype than existing mild models but lives into adulthood, which enables testing SMA treatments after disease onset. […] (1) a monotherapy, (2) as a combination therapy with an SMN-upregulating compound administered at the onset of disease, and (3) in a mild model of SMA was don. Dosing of the myostatin inhibitor began at PND24 and continued for 28 days until PND52. In all of these models, GYM329 was administrated once per week at 3 mg/kg (4 subcutaneous injections). A cohort of wild type (WT) littermates treated with the vehicle was included as a reference group. At the study's conclusion, in vivo muscle force frequency, muscle weight, muscle histopathology, bone morphometry, and voluntary running were assessed.
The pharmacological model was generated by treating delta7 mice [FVB.Cg-Tg(SMN2*delta7)4299Ahmb Tg(SMN2)89Ahmb, homozygous knockout mice completely lacking mouse Smnl] with a dose of an SMN-upregulating compound, SMN-C1. For CH1 and CH2, the mice were given a suboptimal dose of SMN-C1 (0.1 mg/kg daily) for the duration of the study. For CH3 and CH4, mice were given a suboptimal dose of SMN-C1 (0.1 mg/kg daily) from PND1-23 and switched to a higher dose (3 mg/kg daily) from PND24-52. For CH5 and CH6, mice were treated with a higher dose of SMN-C1 (3 mg/kg daily) for the duration of the study. Wild type (WT) mice [FVB.Cg-Tg(SMN2*delta7)4299Ahmb Tg(SMN2)89Ahmb, homozygous for the mouse Smnl gene] were used as a reference.
Statistical analysis was performed using SigmaPlot v11. Muscle performance data were analyzed using a two-way repeated measures ANOVA. Post-hoc analysis for pairwise comparisons was performed with a Holm-Sidak test. Body weights, muscle weights, muscle fiber typing data, and cortical and trabecular bone data were analyzed using a one-way ANOVA, with post-hoc analysis performed with a Holm-Sidak test. Data
Body weights were taken daily for SMA mice and weekly for WT mice.

[7] = PND52, delta 7 mice + low dose SMN-C1 (0.1 mg/kg PND1-52)
[8] = delta 7 mice + high dose SMN-C1 (3 mg/kg PND1-52)
[9] = delta 7 mice + low to high dose SMN-C1 (0.1 mg/kg PND1-23, 3 mg/kg PND24-52)
[10] = delta 7 mice + high dose SMN-C1 (3 mg/kg PND1-52), vs SMA Vehicle
[11] = delta 7 mice + low dose SMN-C1 (0.1 mg/kg PND1-52)
[12] = delta 7 mice + high dose SMN-C1 (3 mg/kg PND1-52), GYM329 3 mg/kg SC weekly, PND52, vs SMA Vehicle

B1: GYM329: anti-myostatin antibody binding latent myostatin; CDRs SEQ ID 1-6, VH SEQ ID 7, VL SEQ ID 8, heavy chain SEQ ID 9, light chain SEQ ID 10 (antibody)
heavy: QVQLVESGGGLVQPGGSLRLSCAVSGIDLSHDDISWVRQAPGKGLEWVSIISYAGSTYYASWAKGRLTISKDTSKNQVVLTMTNMDPVDTATYYCARGVPAYSHGGDLWGQGTLVTVSSASTKGPSVFPLAPSSKSTSGGTAALGCLVKDYFPEPVTVSWNSGALTSGVHTFPAVLQSSGLYSLSSVVTVPSSSLGTQTYICNVNHKPSNTKVDKKVEPKSCDKTHTCPPCPAPEYLGGDSVFLFPPKPKDVLMISRTPEVTCVVIDVSHEDPEVKFNWYVDGVEVHNAKTKPREEQYNSTYRVVSVLPVLHRDWLNGKEYKCKVSNKALPKPIEKTISKAKGQRREPQVYTLPPSREEMTKNQVSLTCLVKGFYPSDIAVEWESNGQPENNYKTTPPVLDSDGSFFLYSKLTVDKSRWQQGNVFSCSVLHEALHAHTTRKELSLSP
light: DIVMTQSPATLSLSPGERATLSCTTSQSVYHENWLSWFQQKPGQPPKLLIYWASTLAYGVPSRFSGSGSGTDFTLTISSLQPEDAATYYCAGGYGGGRYAFGQGTKVEIKRTVAAPSVFIFPPSDEQLKSGTASVVCLLNNFYPREAKVQWKVDNALQSGNSQESVTEQDSKDSTYSLSSTLTLSKADYEKHKVYACEVTHQGLSSPVTKSFNRGEC
modifications: CDR sequences
With B1 the “Plantarflexor muscle function (maximum torque)” value (from here on “Plantarflexor muscle function”) (delta7 mice [1]; delta 7 mice + high dose SMN-C1 (3 mg/kg PND1-52), GYM329 3 mg/kg SC weekly) was “not significantly affected”, the “Plantarflexor muscle function” value (delta7 mice [1]; delta 7 mice + low dose SMN-C1 (0.1 mg/kg PND1-52), 3 mg/kg SC weekly, main effect p=0.078 vs SMA Vehicle) was “trend for improvement” and the “Plantarflexor muscle function” value (delta7 mice [1]; delta 7 mice + low to high dose SMN-C1 (0.1 mg/kg PND1-23, 3 mg/kg PND24-52), GYM329 3 mg/kg SC weekly) was “no effect”. The Cortical bone parameters (delta7 mice [2]; [7]) was “no effect”, the Trabecular bone parameters (delta7 mice [2]; [7]) was “no effect” and the “Bone volume (trabecular)” value (delta7 mice [2]; [8]) was “improved”. The Cortical cross-sectional thickness (delta7 mice [2]; [8]) was “improved”, the “Mean total cross-sectional bone area (cortical)” value (delta7 mice [2]; [8]) was “improved” and the Trabecular number (delta7 mice [2]; [8]) was “improved”. The Trabecular separation (delta7 mice [2]; [8]) was “improved”, the Trabecular thickness (delta7 mice [2]; [8]) was “improved” and the “Cross-sectional thickness in cortical bone” value (delta7 mice [2]; [9]) was “improved”. The “Mean total cross-sectional bone area in cortical bone” value (delta7 mice [2]; [9]) was “improved”, the Trabecular bone parameters (delta7 mice [2]; [9]) was “no effect” and the Tolerability [3] was “well-tolerated”. The Masseter maximum force (delta7 mice [4]; at 80, 100, and 150 Hz, delta 7 mice + high dose SMN-C1 (3 mg/kg PND1-52), vs SMA Vehicle) was “increased”, the Masseter function (delta7 mice [4]; delta 7 mice + high dose SMN-C1 (3 mg/kg PND1-52), main effect p=0.048 vs SMA Vehicle) was “improved” and the “Masseter function (maximum force)” value (delta7 mice [4]; delta 7 mice + low dose SMN-C1 (0.1 mg/kg PND1-52), vs SMA Vehicle) was “no effect”. For the same molecule, the “Masseter function (maximum force)” value (delta7 mice [4]; [9]) was “no effect”, the Muscle fiber types (delta7 mice [5]; [8]) was “no significant differences” and the “Mean fiber cross-sectional area” value (delta7 mice [5]; [10]) was “increased”. For the same molecule, the “Type IIB fiber cross-sectional area” value (delta7 mice [5]; [10]) was “increased”, the “Muscle fiber cross-sectional area” value (delta7 mice [5]; [11]) was “no differences” and the “Muscle fiber type percentages” value (delta7 mice [5]; [11]) was “no differences”. For the same molecule, the “Muscle fiber cross-sectional area” value (delta7 mice [5]; [9]) was “not affected”, the “Muscle fiber type composition” value (delta7 mice [5]; [9]) was “not affected” and the Body weights (delta7 mice [6]; [12]) was “significantly increased”. For the same molecule, the Gastrocnemius weight (delta7 mice [6]; [12]) was “significantly increased”, the Soleus weight (delta7 mice [6]; [12]) was “significantly increased” and the TA weight (delta7 mice [6]; [12]) was “significantly increased”. For the same molecule, the Body weight (delta7 mice [6]; delta 7 mice + low dose SMN-C1 (0.1 mg/kg IP QD PND1-52), GYM329 3 mg/kg SC weekly from PND24, vs SMA Vehicle) was “not significantly increased”, the Gastrocnemius weight (delta7 mice [6]; delta 7 mice + low dose SMN-C1 (0.1 mg/kg PND1-52), GYM329 3 mg/kg SC weekly, PND52, p=0.061) was “trend for increased” and the Muscle weights (delta7 mice [6]; delta 7 mice + low dose SMN-C1 (0.1 mg/kg PND1-52), GYM329 3 mg/kg SC weekly, PND52, vs SMA Vehicle) was “did not significantly affect”. For the same molecule, the Muscle weights (delta7 mice [6]; delta 7 mice + low to high dose SMN-C1 (0.1 mg/kg PND1-23, 3 mg/kg PND24-52), GYM329 3 mg/kg SC weekly, PND52) was “not affected”.
